Source: patent US20260258128A1 (MUSTBIO, published 2026)

Legend:
Experiment in all cases: cell-based or functional assay
[1] = target: T1, CD3 on T cells of human peripheral blood mononuclear cells (human, UniProt P07766 23-207)
[2] = target: PD-L1 on human cells (MDA-MB-231, MCF-7, 293T) (human, UniProt Q9NZQ7 19-290)
[3] = target: T1, CD3 on T cells of human peripheral …; remark: listed apart in the source

Sequence of PD-L1 on human cells (MDA-MB-231, MCF-7, 293T) (Q9NZQ7 19-290): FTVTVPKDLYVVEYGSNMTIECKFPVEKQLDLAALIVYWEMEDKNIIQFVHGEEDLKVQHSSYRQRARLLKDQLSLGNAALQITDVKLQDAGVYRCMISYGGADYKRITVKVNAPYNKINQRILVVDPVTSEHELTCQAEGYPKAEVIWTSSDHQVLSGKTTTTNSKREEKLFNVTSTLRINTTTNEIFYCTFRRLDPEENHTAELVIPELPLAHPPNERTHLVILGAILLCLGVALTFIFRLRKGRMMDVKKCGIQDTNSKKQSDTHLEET
T1 sequence (P07766 23-207): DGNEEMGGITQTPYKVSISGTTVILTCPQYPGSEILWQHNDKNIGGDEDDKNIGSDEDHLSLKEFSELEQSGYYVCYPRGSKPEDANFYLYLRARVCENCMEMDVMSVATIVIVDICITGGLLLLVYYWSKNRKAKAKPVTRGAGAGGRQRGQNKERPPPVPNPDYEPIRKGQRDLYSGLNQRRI

Row | Binder | Death of cancer cells EC50 (MDA-MB-231 + human PBMC, flow cytometry) [1] | Death of cancer cells Emax (%) [1] | IFNγ release EC50 [1] | IFNγ release Maximum concentration [1] | Tumor lysis EC50, 293T (normal cells, low PD-L1 expression) + human PBMC [2] | Tumor lysis EC50, MCF7 (low PD-L1 expression) + human PBMC [2] | Tumor lysis EC50, MDA-MB-231 (high PD-L1 expression) + human PBMC [2] | fold reduction of the maximum cytokine release level compared to the CD3-binding monoclonal antibody [3]
1 | Protein complex of CD3-binding antibody variable region 1-Fc x PD-L1 antibody (bispecific antibody) chain 1: EVQLVESGGGLVQPGGSLRLSCAASGFSFTGYTMNWVRQAPGKGLEWVALINPYKGVTTYADSVKGRFTISRDNSKNTAYLQMNSLRAEDTAVYYCARSGYYGDSDWYFDVWGQGTLVTVSSDIQMTQSPSSLSASVGDRVTITCRASQDIRNYLNWYQQKPGKAPKLLIYYTSRLESGVPSRFSGSGSGTDYTLTISSLQPEDFATYYCQQGNTLPWTFGQGTKVEIKRT chain 2: EVQLLESGGGLVQPGGSLRLSCAASGFTFSSYIMMWVRQAPGKGLEWVSSIYPSGGITFYADTVKGRFTISRDNSKNTLYLQMNSLRAEDTAVYYCARIKLGTVTTVDYWGQGTLVTVSSASTKGPSVFPLAPSSKSTSGGTAALGCLVKDYFPEPVTVSWNSGALTSGVHTFPAVLQSSGLYSLSSVVTVPSSSLGTQTYICNVNHKPSNTKVDKKV chain 3: QSALTQPASVSGSPGQSITISCTGTSSDVGGYNYVSWYQQHPGKAPKLMIYDVSNRPSGVSNRFSGSKSGNTASLTISGLQAEDEADYYCSSYTSSSTRVFGTGTKVTVLGQPKANPTVTLFPPSSEELQANKATLVCLISDFYPGAVTVAWKADGSPVKAGVETTKPSKQSNNKYAASSYLSLTPEQWKSHRSYSCQVTHEGSTVEKTVAPTECS | 0.23 nM | 80% | 0.1 nM | 6.1 ng/mL | – | – | – | –
2 | Protein complex of CD3-binding antibody variable region 4-Fc x PD-L1 antibody (bispecific antibody) chain 1: EVQLVESGGGLVQPGGSLRLSCAASGFSFTGYTMNWVRQAPGKGLEWVALINPYKGVTTYADSVKGRFTISADNSKNTLYLQMNSLRAEDTAVYYCARSGYYGDSDWYFDVWGQGTLVTVSSDIQMTQSPSSLSASVGDRVTITCRASQDIRNYLNWYQQKPGKAPKLLIYYTSSLESGVPSRFSGSGSGTDYTLTISSLQPEDFATYYCQQGNTLPWTFGQGTKVEIKRT chain 2: EVQLLESGGGLVQPGGSLRLSCAASGFTFSSYIMMWVRQAPGKGLEWVSSIYPSGGITFYADTVKGRFTISRDNSKNTLYLQMNSLRAEDTAVYYCARIKLGTVTTVDYWGQGTLVTVSSASTKGPSVFPLAPSSKSTSGGTAALGCLVKDYFPEPVTVSWNSGALTSGVHTFPAVLQSSGLYSLSSVVTVPSSSLGTQTYICNVNHKPSNTKVDKKV chain 3: QSALTQPASVSGSPGQSITISCTGTSSDVGGYNYVSWYQQHPGKAPKLMIYDVSNRPSGVSNRFSGSKSGNTASLTISGLQAEDEADYYCSSYTSSSTRVFGTGTKVTVLGQPKANPTVTLFPPSSEELQANKATLVCLISDFYPGAVTVAWKADGSPVKAGVETTKPSKQSNNKYAASSYLSLTPEQWKSHRSYSCQVTHEGSTVEKTVAPTECS | 0.18 nM | 79% | 31.2 nM | 2.6 ng/mL | – | – | – | –
3 | Protein complex of CD3-binding antibody variable region 6-Fc x PD-L1 antibody (bispecific antibody) chain 1: EVQLVESGGGLVQPGGSLRLSCAASGFSFTGYTMNWVRQAPGKGLEWVALINPYKGVTTYADSVKGRFTISDDNSKNTLYLQMNSLRAEDTAVYYCARSGYYGDSDWYFDVWGQGTLVTVSSDIQMTQSPSSLSASVGDRVTITCRASQDIRNYLNWYQQKPGKAPKLLIYYTSSLESGVPSRFSGSGSGTDYTLTISSLQPEDFATYYCQQGNTLPWTFGQGTKVEIKRT chain 2: EVQLLESGGGLVQPGGSLRLSCAASGFTFSSYIMMWVRQAPGKGLEWVSSIYPSGGITFYADTVKGRFTISRDNSKNTLYLQMNSLRAEDTAVYYCARIKLGTVTTVDYWGQGTLVTVSSASTKGPSVFPLAPSSKSTSGGTAALGCLVKDYFPEPVTVSWNSGALTSGVHTFPAVLQSSGLYSLSSVVTVPSSSLGTQTYICNVNHKPSNTKVDKKV chain 3: QSALTQPASVSGSPGQSITISCTGTSSDVGGYNYVSWYQQHPGKAPKLMIYDVSNRPSGVSNRFSGSKSGNTASLTISGLQAEDEADYYCSSYTSSSTRVFGTGTKVTVLGQPKANPTVTLFPPSSEELQANKATLVCLISDFYPGAVTVAWKADGSPVKAGVETTKPSKQSNNKYAASSYLSLTPEQWKSHRSYSCQVTHEGSTVEKTVAPTECS | 3.5 nM | 68% | 16.4 nM | 5.1 ng/mL | – | – | – | –
4 | Protein complex of CD3-binding antibody variable region 2-Fc x PD-L1 antibody (bispecific antibody) scFv-Fc: EVQLVESGGGLVQPGGSLRLSCAASGFSFTGYTMNWVRQAPGKGLEWVALINPYKGVTTYADSVKGRFTISRDNSKNTLYLQMNSLRAEDTAVYYCARSGYYGDSDWYFDVWGQGTLVTVSSGGGGSGGGGSGGGGSDIQMTQSPSSLSASVGDRVTITCRASQDIRNYLNWYQQKPGKAPKLLIYYTSSLESGVPSRFSGSGSGTDYTLTISSLQPEDFATYYCQQGNTLPWTFGQGTKVEIKRTEPKSSDKTHTCPPCPAPEAAGGPSVFLFPPKPKDTLMISRTPEVTCVVVDVSHEDPEVKFNWYVDGVEVHNAKTKPREEQYNSTYRVVSVLTVLHQDWLNGKEYKCKVSNKALPAPIEKTISKAKGQPREPQVYTGPPSRDELTKNQVSLSCAVKGFYPSDIAVEWESNGQPENNYKTTPPVLDSDGSFFLVSKLTVDKSRWQQGNVFSCSVMHEALHNHYTQKSLSLSPGK heavy: not shown light: QSALTQPASVSGSPGQSITISCTGTSSDVGGYNYVSWYQQHPGKAPKLMIYDVSNRPSGVSNRFSGSKSGNTASLTISGLQAEDEADYYCSSYTSSSTRVFGTGTKVTVLGQPKANPTVTLFPPSSEELQANKATLVCLISDFYPGAVTVAWKADGSPVKAGVETTKPSKQSNNKYAASSYLSLTPEQWKSHRSYSCQVTHEGSTVEKTVAPTECS | 0.05 nM | – | 2.5 nM | – | 0.0313 nM | 0.15 nM | 0.0945 nM | –
5 | Protein complex of CD3-binding antibody variable region 5-Fc x PD-L1 antibody (bispecific antibody) chain 1: EVQLVESGGGLVQPGGSLRLSCAASGFSFTGYTMNWVRQAPGKCLEWVALINPYKGVTTYADSVKGRFTISADNSKNTLYLQMNSLRAEDTAVYYCARSGYYGDSDWYFDVWGQGTLVTVSSDIQMTQSPSSLSASVGDRVTITCRASQDIRNYLNWYQQKPGKAPKLLIYYTSSLESGVPSRFSGSGSGTDYTLTISSLQPEDFATYYCQQGNTLPWTFGCGTKVEIKRT chain 2: EVQLLESGGGLVQPGGSLRLSCAASGFTFSSYIMMWVRQAPGKGLEWVSSIYPSGGITFYADTVKGRFTISRDNSKNTLYLQMNSLRAEDTAVYYCARIKLGTVTTVDYWGQGTLVTVSSASTKGPSVFPLAPSSKSTSGGTAALGCLVKDYFPEPVTVSWNSGALTSGVHTFPAVLQSSGLYSLSSVVTVPSSSLGTQTYICNVNHKPSNTKVDKKV chain 3: QSALTQPASVSGSPGQSITISCTGTSSDVGGYNYVSWYQQHPGKAPKLMIYDVSNRPSGVSNRFSGSKSGNTASLTISGLQAEDEADYYCSSYTSSSTRVFGTGTKVTVLGQPKANPTVTLFPPSSEELQANKATLVCLISDFYPGAVTVAWKADGSPVKAGVETTKPSKQSNNKYAASSYLSLTPEQWKSHRSYSCQVTHEGSTVEKTVAPTECS | 0.18 nM | 66% | 10 nM | 4.4 ng/mL | – | – | – | –
6 | Protein complex of CD3-binding antibody variable region 3-Fc x PD-L1 antibody (bispecific antibody) scFv-Fc: EVQLVESGGGLVQPGGSLRLSCAASGFSFTGYTMNWVRQAPGKCLEWVALINPYKGVTTYADSVKGRFTISRDNSKNTLYLQMNSLRAEDTAVYYCARSGYYGDSDWYFDVWGQGTLVTVSSGGGGSGGGGSGGGGSDIQMTQSPSSLSASVGDRVTITCRASQDIRNYLNWYQQKPGKAPKLLIYYTSSLESGVPSRFSGSGSGTDYTLTISSLQPEDFATYYCQQGNTLPWTFGCGTKVEIKRTEPKSSDKTHTCPPCPAPEAAGGPSVFLFPPKPKDTLMISRTPEVTCVVVDVSHEDPEVKFNWYVDGVEVHNAKTKPREEQYNSTYRVVSVLTVLHQDWLNGKEYKCKVSNKALPAPIEKTISKAKGQPREPQVYTGPPSRDELTKNQVSLSCAVKGFYPSDIAVEWESNGQPENNYKTTPPVLDSDGSFFLVSKLTVDKSRWQQGNVFSCSVMHEALHNHYTQKSLSLSPGK heavy: not shown light: QSALTQPASVSGSPGQSITISCTGTSSDVGGYNYVSWYQQHPGKAPKLMIYDVSNRPSGVSNRFSGSKSGNTASLTISGLQAEDEADYYCSSYTSSSTRVFGTGTKVTVLGQPKANPTVTLFPPSSEELQANKATLVCLISDFYPGAVTVAWKADGSPVKAGVETTKPSKQSNNKYAASSYLSLTPEQWKSHRSYSCQVTHEGSTVEKTVAPTECS | 0.06 nM | – | 0.1 nM | – | – | – | – | 10.5 fold
7 | Protein complex of CD3-binding antibody variable region 7-Fc x PD-L1 antibody (bispecific antibody) chain 1: EVQLVESGGGLVQPGGSLRLSCAASGFSFTGYTMNWVRQAPGKGLEWVALINPYKGVTTYADSVKGRFTISQDNSKNTLYLQMNSLRAEDTAVYYCARSGYYGDSDWYFDVWGQGTLVTVSSDIQMTQSPSSLSASVGDRVTITCRASQDIRNYLNWYQQKPGKAPKLLIYYTSSLESGVPSRFSGSGSGTDYTLTISSLQPEDFATYYCQQGNTLPWTFGQGTKVEIKRT chain 2: EVQLLESGGGLVQPGGSLRLSCAASGFTFSSYIMMWVRQAPGKGLEWVSSIYPSGGITFYADTVKGRFTISRDNSKNTLYLQMNSLRAEDTAVYYCARIKLGTVTTVDYWGQGTLVTVSSASTKGPSVFPLAPSSKSTSGGTAALGCLVKDYFPEPVTVSWNSGALTSGVHTFPAVLQSSGLYSLSSVVTVPSSSLGTQTYICNVNHKPSNTKVDKKV chain 3: QSALTQPASVSGSPGQSITISCTGTSSDVGGYNYVSWYQQHPGKAPKLMIYDVSNRPSGVSNRFSGSKSGNTASLTISGLQAEDEADYYCSSYTSSSTRVFGTGTKVTVLGQPKANPTVTLFPPSSEELQANKATLVCLISDFYPGAVTVAWKADGSPVKAGVETTKPSKQSNNKYAASSYLSLTPEQWKSHRSYSCQVTHEGSTVEKTVAPTECS | 2.26 nM | 68% | 15.3 nM | 9.3 ng/mL | – | – | – | –
